Results taken from the DeepSol protein solubility set.

Test: soluble on expression in E. coli; label from the status in PepcDB or PDB records

Sequence | soluble on expression in E. coli
MLPTRSLLPFFLAPALLASAASQAAMEALDNDSLSQVTGQAGISLRLDLRAGAARVAWVDDGGSLSLRNLVIDNGCVKAGDCPDGRGGNIPLGAAQLGLSLPIFGVEQPTLALDVTTGSGGGQQLAISLPDLATINDQLIASGLPAQRIRLRVASDLYIGDNSIGRIELRDITDLRGTIKVWGH | not soluble
MLQNPPRITSTASIVGPKEGKGPLRLFFDNIIEDEMWGEKSWEKAESKLIRETFSKVLQKGNKTSQEIDYVISGDLLNQCIAANFGLRESDVPFFGVYGACSTIAESMSIGAMLVDGGFADNVVCITSSHFCSAEKQFRFPLELGTQRPPSAQWTVTGSGGVLISNDGSGPYITHITTGKIVDMGIKDANNMGAAMAPAAVDTIVTHFKDTGFTPESYDLILTGDLGAIGREICVELTREQGFNIENIYNDCGLMIYDREKQDTHAGGSGCGCAATVFAGFVYKKLMDGTLKNVLFVATGALLSPVSTQQGESIPSIAHAISITTSPERLEHHHHHH | not soluble
MLQPPHQSLQVAAVPAQRAPVRDRDQDAPWHTEAVCRRDEAGLFFAPSKEPTAARLSREEAAKRVCARCPVMVECREHALLQPEPYGVWGGLTAAERRVVLARRRRRDVELKKAARGTIAAAG | not soluble
MLRPKEACQRLGISYATLREYVKKGYIKPVILQSGKQRFGEEDVERLMGIIRKRKVILYARVSSSTQKDELVNQVKYLEEQVKEYDLVITDIGSGLNMKRKGFLKLLRMILNNEVSRVVVAYPDRLVRVGFEILEEVCKAHNCEIVVLNQEDKEEELVEDLMSALVSFSGKLYGMRSHEYEKVKKCAEELKNWKI | not soluble
MLSGDLAEFPFPSLVGALMSAGRTGRLHLRPPFLEAEVYLRGGQVVHAKAQAGERALEGEEALDLLVGLRRAPFVFEPEALPPHTTLLGGLEVPARLAQAQAAWEKVKLPADWGLRLRLPREGSAVELPPEALGLLARVEGKRIAEVLLAPGVLRQARVLSTLLEVGALEAYPEVDLPPEPLVVLPIYGPGSGVAYVDEALYAQWARAIRRGFRVRLLPLGAVLEVRPRPNLQGRVGLMEEDLKRLRLRRGDKVEAVPKV | soluble
MLSPIENERSEIPSPEKLKLVEEPSDDESKFSNYDSDDWETLSDDLRLLDEEWGKSGGFDVDFSKVRHRFGRGAVHLDDDNMVSEPHETNRDLLNRLSNMAISFYNDKTGIKLELVKVLRANFHPSAAITLYITFEANDPSDGNQTKRYQAVVRYLSFDIEVCSCNPEPSSS | soluble
MLSRTLRPISKVLRSSAKYSQAAGLPLNEGSPAPLPSEDRAISAKVSSLVEEIANLSLLDVSDLNWALKKRLNIPDQPLMAAAAAAPAAQAEAEAASDVPQKMTFTVKLTKFDDTKKIAIIKEIRNAIPGLNLVQAKKFVETAPVNVKEDLGKAEADELKAILEKAGATIEIV | not soluble
MLSTVFRRTMATGRHFIAVCQMTSDNDLEKNFQAAKNMIERAGEKKCEMVFLPECFDFIGLNKNEQIDLAMATDCEYMEKYRELARKHNIWLSLGGLHHKDPSDAAHPWNTHLIIDSDGVTRAEYNKLHLFDLEIPGKVRLMESEFSKAGTEMIPPVDTPIGRLGLSICYDVRFPELSLWNRKRGAQLLSFPSAFTLNTGLAHWETLLRARAIENQCYVVAAAQTGAHNPKRQSYGHSMVVDPWGAVVAQCSERVDMCFAEIDLSYVDTLREMQPVFSHRRSDLYTLHINEKSSETGGLKFARFNIPADHIFYSTPHSFVFVNLKPVTDGHVLVSPKRVVPRLTDLTDAETADLFIVAKKVQAMLEKHHNVTSTTICVQDGKDAGQTVPHVHIHILPRRAGDFGDNEIYQKLASHDKEPERKPRSNEQMAEEAVVYRNLM | soluble
MLSVDYENFDLISYLYNLVRQIPDGMVSTYGDLAEALGDPVAARSVGFMLSINKEPDYIPCYKVVPHDGSVGNYTHPLGSAEKMRRLIRDGITITNGHISNFEKVRFREFKTDYPLRKLRELQFKIGRLYDDRNDYSLDTIAAFDVSYKETRGYASKVVYNKGKIGAYVYSSDSMFPYIPGYLAFKEFKFIRALYDNETMILIDGNGILHPRFAGLATHAGVSLKTASIGIAKHLINCTVKGSDLLISGVVAGKMIGHHTIVSPGNRINVEEAGRLIEQREGKEMRSLLRLAHNLTRLHIETNGNIARYDFSTRNTAIQSSLEHHHHHH | not soluble
MLTDGSYFHLHLVSDSTGETLITVSRAVTAQYANVTPVEHVYPLVRSQKQLDRVLQEIEEAPGIVLFTLLETELVNRLEAKCQEINSPSLSIIGPVMQLFEAYLGASTMGRVGAQHTLNAEYFQRIDALNYSMMHDDGQHVEGLEEADVVLVGVSRTSKTPTSIYLANRGIRTANVPLVAGIPIPHQLETLKKPLVVSLHASPERLIQVRQNRLLSLGAGSGNDSYIDRQAVTDEVLLARKLSAKYGWSLLDVTRRSIEETAAAIMKLLADRQRQRVPELEHHHHHH | not soluble
MLTIERHEQIVKLVQEKEVVTIHDLVEYTNASESTIRRDLTELEKQKKLKRIHGGASVLKKRREEPTMAEKTVKNNHEKKKIAELAASFVEDGDCLFLDAGTTTYELIPFIKTKKIVVVTNGLDSISALLEAGVETYVIGGTVKQGTRAFVGRHAIQSLQTFRFDKAFLGINGVHLEDGFTTPDPQEAYVKETALSLSREAFMLVDHSKFGETTFATVAPIHAATIVTSSQVEQQVIQAYETQTAVKVVTLLEHHHHHH | soluble
MLTIQFLCPLPNGLHARPAWELKEQCSQWQSEITFINHRQNAKADAKSSLALIGTGTLFNDSCSLNISGSDEEQARRVLEEYIQVRFIDSDSVQPTQAELTAHPLPRSLSRLNPDLLYGNVLASGVGVGTLTLLQSDSLDSYRAIPASAQDSTRLEHSLATLAEQLNQQLRERDGESKTILSAHLSLIQDDEFAGNIRRLMTEQHQGLGAAIISNMEQVCAKLSASASDYLRERVSDIRDISEQLLHITWPELKPRNKLVLEKPTILVAEDLTPSQFLSLDLKNLAGMILEKTGRTSHTLILARASAIPVLSGLPLDAIARYAGQPAVLDAQCGVLAINPNDAVSGYYQVAQTLADKRQKQQAQAAAQLAYSRDNKRIDIAANIGTALEAPGAFANGAEGVGLFRTEMLYMDRDSAPDEQEQFEAYQQVLLAAGDKPIIFRTMDIGGDKSIPYLNIPQEENPFLGYRAVRIYPEFAGLFRTQLRAILRAASFGNAQLMIPMVHSLDQILWVKGEIQKAIVELKRDGLRHAETITLGIMVEVPSVCYIIDHFCDEVDFFSIGSNDMTQYLYAVDRNNPRVSPLYNPITPSFLRMLQQIVTTAHQRGKWVGICGELGGESRYLPLLLGLGLDELSMSSPRIPAVKSQLRQLDSEACRELARQACECRSAQEIEALLTAFTPEEDVRPLLALENIFVDQDFSNKEQAIQFLCGNLGVNGRTEHPFELEEDVWQREEIVTTGVGFGVAIPHTKSQWIRHSSISIARLAKPIGWQSEMGEVELVIMLTLGANEGMNHVKVFSQLARKLVNKNFRQSLFAAQDAQSILTLLETELTF | soluble
MLTLVGTYPPIRCGIATFNRDLREALLREGVPSQVAVVAHPEEVALPFPQEVVRVVAKEDREGYRALARLLRGPVILQHEYGLYGGKWGDYVLDLLEAQGPKLVVLHTLLQAPPPGLGEADLRYMQGLLRAMAERAQAFVALHPEGEGLLRALGVRIPVAHIPHGVPDLPRPPKEALKRALGLEGAFLLFTYGLLGPGKGLEFALKVLARVLPHNPRVRYLVAGRLHPNLERHEGRRYLERVREMAEALGVGEAFLLREGYLSEEELYRLAGAADLFLLPYPNLEQVSSGTLSYALALGKAVLSTPFRHARAALAAGRGVLLPLEEEAWAQAVLALAESPERLREMEERAYAYARDFTWPRVARAYRRLLEEVADVRPRVA | soluble
MLTQYRQAQEDILRGRVKVRVVGQDKGGGVVMGEGVEIAPGARIEGPVLIGGACHIATGAVVGPFTVLGPYTRVEEGATVRRSVLWDNVYTGEGANVRGAVVCSRASLQRRVQVYEGAVIGDGTQVDAGAEVRPEVKVWPEKTLEHHHHHH | not soluble
MLVFISNSRLSESEVQKLRDKHLIDDFIQRENKGYDFAAWHDGMEFVGFENLKQYDSVTVMNDTCFGPLWDMAPIYDNYESNPNVDFWGMTNHQGIKAGDIYIHEHLQSYFISFKKRLVESSVFQKFWKSVESFEDVQKVIDNYETLYTKKFRDAGFNYESILNTIPLNDKFFHSNFTIHYPHVLLDTGVPFIKVKTFDLTQHLAPYLLKEIEKRTDYPVELILSHMSDMSLPTPPYLLDRKVIEKSSQTYSDTKKIAVHLHTYYVDLLEDFLKQFENFHFTYDLFLTTDSEDKKAEIQSILDKNGKVARIFITGNRGRDVIPMLKLKDELSAYDYIGHFHTKKSPEYPYWVGDSWRNELFSMLIQPADNIIANLERDDRLGLVIADIPSFFRYTKIVDPWNENRFAEGMNDLWERMDLGRDIDFDKMNTFIMSYGTFIWFKYDALKPLFDLDLQDEEIPAEPIPQHTILHSIERILVYLAWARRYDYAIAKNDIYITPFVDNVVLNIRPDTLPNTYINFDNIGGIKGALKYIIVGPGTAVKYIFRRIKRKFKSLEHHHHHH | soluble
MLYALLLLFGGVSTVSSLRVAVVGEGVIGLSTATAILDLAEKRNIPAPEIHIFHHKPFEKILSRHIAGLFRIDSGSEIDRKYGYDTFEKLATLWREYGGLSGVQLVSGHILSDSKTKLDSQRESYGSLVYNYRDLAEPELFGPTSLFDLPRNTTTRGIHYTAYTSEGLRFCPFLKKELMTKGVRFTQRRIGNLEELGAEFDVVVNSAGLLGGVLAGDDAGNMKPIRGVLIRVDAPWQKHFLYRDFSTITIPVIDHVYMGTVKQEGAFGPNNVTSADIQDITSRYVALQPSFKRVHMLSSFVGYRPGRKQVRVEKQIRETNGSKKFTVVHNYGHSGNGFTLGYGSAVHAAHIVLDLPLDAYHGLVPEPLPINATISEWVKYLDD | not soluble
MLYREHHSWIYTWLYRRLGNSADAADLAQDTFIRVITRKSLLEIEQPRAYLTTVAKSLMLNWFNRRNIEQAYLEVLANQPEFEHPSPEQRYLIVETLIEVIQLLDTLPDQIRDVFLHAQLENMNYQQIADQFNLSLSTVKRHIKKAYIHCLTAMLDTDFSC | not soluble
MMCTAKKCGIRFQPPAIILIYESEIKGKIRQRIMPVRNFSKFSDCTRAAEQLKNNPRHKSYLEQVSLRQLEKLFSFLRGYLSGQSLAETMEQIQRETTIDPEEDLNKLDDKELAKRKSIMDELFEKNQKKKDDPNFVYDIEVEFPQDDQLQSCGWDTESADEF | soluble
MMDFSHIVSEDKIKRAIKDGDFQNLPGMGKPLPKMTRHTCRNRCAWAIVFLEHHHHHH | not soluble
MMDKNQLEQEFHKAMLNIYQEALNLPQPYKATRFLQIVNEFGGKEAADKLLSTGEKKTQTGFTELILSGGGVHALKYSMEYLVLQKPWCDLFTEEQLAVARKRLERVGFVFPK | not soluble
MMELETGQCTIMELKKENVKELAQVFKTVAFKDTGTWHASEAGMKITVDDGSYQLASVFINPAFFSSFKVREEIVSMKISIKSISEFLSISENSSSSVKVSYPGMFQPVKMLVEDADGWVARGNFTTTLADQELDFEFDDAGVLATYLLKTQVLKEIIKDFDDTSRTVRIQFTKNSLCFTTFGDVGETTVSIPSRSLQMESVKCLEEVEFSYLLSLIQRMTTAFILATKLILRVDERGVLSCQFSIDHGEGNASYIEFLTVPADEEE | not soluble
